Assay results as given in US20210380679A1 (INHIBRX BIOSCIENCES, published 2021).

T1: human DLL3 (Delta-like ligand 3) (human, UniProt Q9NYJ7 27-618)
T1 construct: endogenous on SHP-77 cells; also called cell-surface DLL3
T1 sequence: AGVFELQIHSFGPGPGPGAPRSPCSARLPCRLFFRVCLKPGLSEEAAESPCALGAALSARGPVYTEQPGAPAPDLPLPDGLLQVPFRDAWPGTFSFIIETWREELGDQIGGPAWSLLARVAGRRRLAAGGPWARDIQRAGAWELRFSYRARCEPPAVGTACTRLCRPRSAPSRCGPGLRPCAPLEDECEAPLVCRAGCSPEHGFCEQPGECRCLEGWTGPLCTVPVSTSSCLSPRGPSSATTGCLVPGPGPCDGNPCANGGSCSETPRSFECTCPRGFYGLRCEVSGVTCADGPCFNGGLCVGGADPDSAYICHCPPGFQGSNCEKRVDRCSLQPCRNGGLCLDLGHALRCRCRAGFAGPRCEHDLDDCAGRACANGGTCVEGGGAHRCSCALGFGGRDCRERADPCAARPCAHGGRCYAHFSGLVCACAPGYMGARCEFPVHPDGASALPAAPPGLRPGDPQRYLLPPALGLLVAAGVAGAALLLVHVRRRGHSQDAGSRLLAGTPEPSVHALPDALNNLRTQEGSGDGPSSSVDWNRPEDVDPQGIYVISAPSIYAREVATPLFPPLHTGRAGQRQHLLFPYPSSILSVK


Biological target: T1, human DLL3 (Delta-like ligand 3)
Test: flow cytometry, sdAb-Fc titrated on SHP-77 cells (DLL3 positive), APC anti-human Fc secondary
Description: FIGS. 2A-L set forth a series of graphs depicting the ability of sdAb and humanized variants thereof targeting DLL3 to bind cell surface DLL3.
Specificity and relative affinity were assessed for purified sdAb-Fcs on DLL3-expressing cells. […] A titration series of the fusion protein was incubated with the DLL3-expressing cell lines (approximately 2.5×10⁴ to 5×10⁴ cells/well) for 30 minutes at 4 degrees Celsius in FACS Buffer (PBS 1% BSA, 0.1% NaN₃ pH 7.4) in 96-well plates. Following three wash steps in FACS buffer, an APC-conjugated anti-human Fcγ specific secondary antibody (Jackson ImmunoResearch) was added and incubated for 30 minutes at 4 degrees Celsius. Following three additional wash steps in FACS buffer bound antibody was detected via flow cytometry (IQue Intellicyte).

Row | binding result | EC50 (read off the curve) | Binder
1 | binds |  | hz8E7v1 (Fc fusion, tested as VHH-human Fc; Fc not specified) VHH: EVQLVESGGGEVQPGGSLRLSCAASEIITSDKSVGWWRQAPGKQRNLVAGISNVGSTNYAESVKGRFTISRDNAKNTLYLQMSSLRAEDTAVYYCYARDFENEYWGQGTLVTVKP
2 | binds |  | hz6F1v5 (Fc fusion, tested as VHH-human Fc; Fc not specified) VHH: EVQLVESGGGEVQPGGSLRLSCAASEIIFSDKTVGWYRQAPGKQRVLVAVISNVDSTNYAESVKGRFTISRDNAKNTVYLQMSSLRAEDTAVYYCYARDFESEYWGRGTQVTVKP
3 | binds |  | hz6F1v6 (Fc fusion, tested as VHH-human Fc; Fc not specified) VHH: EVQLVESGGGEVQPGGSLRLSCAASEIIFSDKTVGWYRQAPGKQRVLVAVISNVESTNYAESVKGRFTISRDNAKNTVYLQMSSLRAEDTAVYYCYARDFESEYWGQGTLVTVKP
4 | binds |  | hz6F1v3 (Fc fusion, tested as VHH-human Fc; Fc not specified) VHH: EVQLVESGGGEVQPGGSLRLSCAASEIIFSDKTVGWYRQAPGKQRVLVAVISNVDSTNYAQSVKGRFTISRDNAKNTVYLQMSSLRAEDTAVYYCYARDFESEYWGQGTLVTVKP
5 | binds |  | hz5A8v7 (Fc fusion, tested as VHH-human Fc; Fc not specified) VHH: EVQLVESGGGEVQPGGSLRLSCAASGSIFSINAMGWYRQAPGKQRELVAVVSSDARTTVAPSVKGRFTISRDNAKNTVYLQMSSLRAEDTAVYYCGVREWYSDSDWRDYEGQGTLVTVKP
6 | binds |  | hz5A8v4 (Fc fusion, tested as VHH-human Fc; Fc not specified) VHH: EVQLVESGGGEVQPGGSLRLSCAASGSIFSINAMGWYRQAPGKQRELVAVVSSDGRTTVAPSVKGRFTISRDNAKNTVSLQMSSLRAEDTAVYYCGVREWYSDSDWRDYEGQGTLVTVKP
7 |  | ~2 nM | hz5A8v1 (Fc fusion, tested as VHH-human Fc; Fc not specified) VHH: EVQLVESGGGEVQPGGSLRLSCAASGSIFSINAMGWYRQAPGKQRELVAVVSSDGRTTVAESVKGRFTISRDNAKNTVYLQMSSLRAEDTAVYYCGVREWYSDSDWRDYEGQGTLVTVKP

The next lines start with the binder.

Row | Binder | binding result | EC50 (read off the curve)
8 | L6C5 (Fc fusion, tested as VHH-human Fc; Fc not specified) VHH: QVQLQESGGGLVQTGGSLTLSCGASEITFSDKTVGWYRQAPGKQRVLVAVISNVDSTNYAHSVKGRFTISRDNAKNTVYLQMNSLKPEDTAVYYCHARDFENEYWGRGTQVTVKP | binds | 
9 | hz6C5v2 (Fc fusion, tested as VHH-human Fc; Fc not specified) VHH: EVQLVESGGGEVQPGGSLRLSCAASEITFSDKTVGWYRQAPGKQRVLVAVISNVDSTNYAESVKGRFTISRDNAKNTVYLQMSSLRAEDTAVYYCHARDFENEYWGQGTLVTVKP | binds | 
10 | hz6F1v7 (Fc fusion, tested as VHH-human Fc; Fc not specified) VHH: EVQLVESGGGEVQPGGSLRLSCAASEIIFSDKTVGWYRQAPGKQRVLVAVISNVDATNYAESVKGRFTISRDNAKNTVYLQMSSLRAEDTAVYYCYARDFESEYWGQGTLVTVKP | binds | 
11 | hz8E7v2 (Fc fusion, tested as VHH-human Fc; Fc not specified) VHH: EVQLVESGGGEVQPGGSLRLSCAASEIITSDKSVGWWRQAPGKQRNLVAGISNVGSTNYAQSVKGRFTISRDNAKNTLYLQMSSLRAEDTAVYYCYARDFENEYWGQGTLVTVKP | binds | 
12 | hz8E7v4 (Fc fusion, tested as VHH-human Fc; Fc not specified) VHH: EVQLVESGGGEVQPGGSLRLSCAASEIITSDKSVGWWRQAPGKQRNLVAGISNVGSTNYAQSVKGRFTISRDNAKNTLFLQMSSLRAEDTAVYYCYARDFENEYWGQGTLVTVKP | binds | 
13 | hz6C5v4 (Fc fusion, tested as VHH-human Fc; Fc not specified) VHH: EVQLVESGGGEVQPGGSLRLSCGASEITFSDKTVGWYRQAPGKQRVLVAVISNVDSTNYAESVKGRFTISRDNAKNTVYLQMSSLRAEDTAVYYCHARDFENEYWGQGTLVTVKP | binds | 
14 | hz6C5v3 (Fc fusion, tested as VHH-human Fc; Fc not specified) VHH: EVQLVESGGGEVQPGGSLRLSCAASEITFSDKTVGWYRQAPGKQRVLVAVISNVDSTNYAHSVKGRFTISRDNAKNTVYLQMSSLRAEDTAVYYCHARDFENEYWGQGTLVTVKP | binds | 
15 | hz6F1v1 (Fc fusion, tested as VHH-human Fc; Fc not specified) VHH: EVQLVESGGGEVQPGGSLRLSCAASEIIFSDKTVGWYRQAPGKQRVLVAVISNVDSTNYAESVKGRFTISRDNAKNTLYLQMSSLRAEDTAVYYCYARDFESEYWGQGTLVTVKP |  | ~0.5 nM
16 | hz6F1v4 (Fc fusion, tested as VHH-human Fc; Fc not specified) VHH: EVQLVESGGGEVQPGGSLRLSCGASEIIFSDKTVGWYRQAPGKQRVLVAVISNVDSTNYAESVKGRFTISRDNAKNTVYLQMSSLRAEDTAVYYCYARDFESEYWGQGTLVTVKP | binds | 
17 | hz8E7v3 (Fc fusion, tested as VHH-human Fc; Fc not specified) VHH: EVQLVESGGGEVQPGGSLRLSCGPSEIITSDKSVGWWRQAPGKQRNLVAGISNVGSTNYAQSVKGRFTISRDNAKNTLYLQMSSLRAEDTAVYYCYARDFENEYWGQGTLVTVKP | binds | 
18 | hz6C5v5 (Fc fusion, tested as VHH-human Fc; Fc not specified) VHH: EVQLVESGGGEVQPGGSLRLSCAASEITFSDKTVGWYRQAPGKQRVLVAVISNVESTNYAESVKGRFTISRDNAKNTVYLQMSSLRAEDTAVYYCHARDFENEYWGQGTLVTVKP | binds | 
19 | hz6F1v2 (Fc fusion, tested as VHH-human Fc; Fc not specified) VHH: EVQLVESGGGEVQPGGSLRLSCAASEIIFSDKTVGWYRQAPGKQRVLVAVISNVDSTNYAESVKGRFTISRDNAKNTVYLQMSSLRAEDTAVYYCYARDFESEYWGQGTLVTVKP | binds | 
20 | hz5A8v2 (Fc fusion, tested as VHH-human Fc; Fc not specified) VHH: EVQLVESGGGEVQPGGSLRLSCAASGSIFSINAMGWYRQAPGKQRELVAVVSSDGRTTVAPSVKGRFTISRDNAKNTVYLQMSSLRAEDTAVYYCGVREWYSDSDWRDYEGQGTLVTVKP | binds | 
21 | hz5A8v9 (Fc fusion, tested as VHH-human Fc; Fc not specified) VHH: EVQLVESGGGEVQPGGSLRLSCAASGSIFSINAMGWYRQAPGKQRELVAVVSSDGRTTVAPSVKGRFTISRDNAKNTVYLQMSSLRAEDTAVYYCGVREWYSESDWRDYEGQGTLVTVKP | binds | 
22 | hz5A8v6 (Fc fusion, tested as VHH-human Fc; Fc not specified) VHH: EVQLVESGGGEVQPGGSLRLSCAASGSIFSINAMGWYRQAPGKQRELVAVVSSEGRTTVAPSVKGRFTISRDNAKNTVYLQMSSLRAEDTAVYYCGVREWYSDSDWRDYEGQGTLVTVKP | binds | 
23 | hz5A8v3 (Fc fusion, tested as VHH-human Fc; Fc not specified) VHH: EVQLVESGGGEVQPGGSLRLSCAASGSIFSINAMGWYRQVLGKQRELVAVVSSDGRTTVAPSVKGRFTISRDNAKNTVYLQMSSLRAEDTAVYYCGVREWYSDSDWRDYEGQGTLVTVKP | binds | 
24 | hz5A8v8 (Fc fusion, tested as VHH-human Fc; Fc not specified) VHH: EVQLVESGGGEVQPGGSLRLSCAASGSIFSINAMGWYRQAPGKQRELVAVVSSDGRTTVAPSVKGRFTISRDNAKNTVYLQMSSLRAEDTAVYYCGVREWYSDADWRDYEGQGTLVTVKP | binds | 
